In assay [1] the target is T1, hPD-L1 on hPD-L1-Fc over-expressed cells (human, UniProt Q9NZQ7 19-290).
T1 construct: whole, on cells; also called over-expressed hPD-L1-Fc cells
Put plainly: cell inhibition assay: cells printed as PD1-27 (PD1 over-expressed CHO-K1), antibody, PD1-Fc-Biotin as competitor, Europium-labeled streptavidin. An excerpt: D. Cell Inhibitory Activity [0090] Lay PD1-27 (PD1 over-expressed CHO-K1 stable transfected cells) on the cell plate for culture inspection one day ahead of schedule. After closure on the next day, add gradient-diluted antibody, then PD1-Fc-Biotin, then Europium-labeled streptavidin, and obtain the readings.

Assay [2] concerns the target T2, hPD-L1-Fc (human, UniProt Q9NZQ7 19-238, limits assumed).
T2 construct: Plate-coated antigen in the Embodiment 1 ELISAs
Put plainly: competition ELISA: antibody pre-incubated with hPD-L1-Fc-Biotin, added to a plate printed as coated with hPD-L1-Fc, SA-HRP. How it is done:
B. ELISA Inhibitory Activity [0086] Incubate the gradient diluted antibody and a certain concentration of hPD-L1-Fc-Biotin, then add the mixture to the plate enveloped with hPD-L1-Fc. Add SA-HRP to the plate after incubating and washing. Then perform coloration. Draw up the reaction curve by fitting of readings (see FIG. 2 for results) to calculate the IC50 value.
A general note: In an ELISA, binding on a coated surface is turned into a signal by an enzyme label.

Assay [3] concerns the target T1, hPD-L1 on hPD-L1-Fc over-expressed cells. Briefly: cell binding on hPD-L1-Fc over-expressed cells, anti-mouse-EU fluorescence. An excerpt: C. Cell Binding Activity [0088] Lay hPD-L1-Fc over-expressed cells on the cell plate for culture inspection one day ahead of schedule. After closure on the next day, add gradient-diluted antibody, then anti-mouse-EU. And then obtain the readings.

Assay [4] has as its target T2, hPD-L1-Fc. Put plainly: ELISA on coated hPD-L1-Fc, goat anti-mouse-HRP. How it is done: A. ELISA Binding Activity [0084] Envelop hPD-L1-Fc on the plate, add gradient diluted antibody, incubate and wash it, and then add goat anti-mouse-HRP, perform coloration, and draw up the reaction curve by fitting of readings (the results as shown in FIG. 1) to calculate the EC50 value.

In assay [5] the target is T3, recombinant human PD-L1 fusion protein (human, UniProt Q9NZQ7 19-238).
T3 construct: This may be the same reagent as hPD-L1-Fc
Put plainly: ELISA, recombinant human PD-L1 fusion protein coated, antibody after 4 days in monkey serum at 37 °C, goat anti-human FAB-HRP, OD450. As for the experimental part: (§1) The recombinant human PD-L1 fusion protein is stored at the concentration of 0.5 μg/mL at 4° C. overnight in enveloping buffer. Remove the solution in wells the next day and wash with PBST for twice. Then add 1% BSA, seal at 37° C. for 1 hour, then wash with PBST for twice. The stable antibody samples are diluted three folds starting from 1 μg/mL for 8 concentration gradients, incubated at 37° C. for 1 hour, and washed with PBST for three times. Dilute with goat anti-human FAB-HRP at ratio of 1:10000, incubate for 1 hour at 37 C, and wash with PBST for three times. Add TMB for 15 min coloration, stop the reaction with 0.5M H₂SO₄ and read out the absorbance at 450 nm.

The target of assay [6] is T3, recombinant human PD-L1 fusion protein. Put plainly: ELISA, recombinant human PD-L1 fusion protein coated, antibody after 1 day in monkey serum at 37 °C, goat anti-human FAB-HRP, OD450. As for the experimental part: as §1
Assay [7] has the same target. Put plainly: ELISA on coated recombinant human PD-L1 fusion protein, goat anti-human FAB-HRP. How it is done:
The recombinant human PD-L1 fusion protein of 0.5 μg/mL is stored at 4° C. overnight in enveloping buffer. Remove the solution in wells the next day and wash with PBST for twice. Then add 1% BSA and seal at 37° C. for 1 hour. Wash with PBST for twice. The antibody is diluted three folds starting from 5 μg/mL for 8 concentration gradients, incubated at 25° C. for 1 hour, and washed with PBST for three time. Dilute with goat anti-human FAB-HRP at ratio of 1:10000, incubate for 1 hour at 37 C, and wash with PBST for three times. Add TMB for 15 min coloration, stop the reaction with 0.5M H₂SO₄ and read out the absorbance at 450 nm.

The target is the same in assay [8]. Briefly: competition ELISA on coated recombinant human PD-L1 fusion protein, PD1-Fc-Biotin as competitor, streptavidin-HRP. How it is done: The recombinant human PD-L1 fusion protein of 0.5 μg/mL is stored at 4° C. overnight in enveloping buffer. Remove the solution in wells the next day and wash with PBST for twice. Then add 1% BSA, seal at 37° C. for 1 hour, then wash with PBST for twice. The antibody is diluted 2.5 folds starting from 10 μg/mL for 8 concentration gradients, mixed with same volume of 1 μg/mL PD1-Fc-Biotin, incubated at 25° C. for 1 hour, and washed with PBST for one time. Incubate with goat streptavidin-HRP at ratio of 1:10000 for 1 hour at 37 C, and wash with PBST for three times. Add TMB for 15 min coloration, stop the reaction with 0.5M H₂SO₄ and read out the absorbance at 450 nm.

The target is the same in assay [9]. Put plainly: ELISA, recombinant human PD-L1 fusion protein coated, antibody after 0 days in monkey serum at 37 °C, goat anti-human FAB-HRP, OD450. As for the experimental part: as §1
Assay [10] has the same target. Put plainly: ELISA, recombinant human PD-L1 fusion protein coated, antibody after 7 days in monkey serum at 37 °C, goat anti-human FAB-HRP, OD450. How it is done: as §1
Assay [11] has as its target T4, recombinant human PD-L1 expressed on the surface of CHO cells (human, UniProt Q9NZQ7 19-290).
T4 construct: whole, on cells; also called CHO cells transfected by PD-L1; CHO cells with PD-L1 expressed on the surface
Briefly: cell ELISA on CHO cells expressing human PD-L1, anti-human-Eu fluorescence. How it is done:
A Chinese hamster ovary (CHO) cell line expressing recombinant human PD-L1 on cell surface is constructed and its binding specificity to humanized antibody anti-PD-L1-1 is determined by ELISA assay. The cells are overlaid on PD-L1 the day before the test, and 1/200 cells are filled with T75 bottles on each well. Then add 1% BSA and seal at 37° C. for 1 hour. The antibody is diluted three folds starting from 5 μg/mL for 8 concentration gradients, incubated at 25° C. for 1 hour, and washed with PBST for one time. The volume of 50 ng/mL anti-human-Eu added to each well is 100 μL, with reaction time of 0.5 hours at 25° C., and washing with PBS for one time. Add fluorescence enhancement liquid and read values at exciting light 337 nm/emitted light 620 nm.

The target of a further assay is T5, B7-1 (Homo sapiens (Human), UniProt P33681 35-242).
T5 construct: probably human
T5 sequence: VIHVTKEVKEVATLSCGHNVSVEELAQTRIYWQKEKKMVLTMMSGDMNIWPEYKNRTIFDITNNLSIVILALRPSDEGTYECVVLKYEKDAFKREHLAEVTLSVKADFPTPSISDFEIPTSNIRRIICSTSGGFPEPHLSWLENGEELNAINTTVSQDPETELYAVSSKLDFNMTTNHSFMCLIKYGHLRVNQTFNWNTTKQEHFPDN
Briefly: ELISA on coated protein, goat anti-human FAB-HRP, OD450. As for the experimental part: The binding of B7 family members B7-1, B7-2 to PD-L2 protein, and the binding of mouse, M. fascicularis and human PD-L1 protein to humanized antibody anti-PD-L1-1 are tested. Different proteins are stored at […] in enveloping buffer at 4° C. overnight. Remove the solution in wells the next day and wash with PBST for twice. Then add 1% BSA, seal at 37° C. for 1 hour, then wash with PBST for twice. Add 0.5 μg/mL antibody samples, incubate for 1 hour, and wash with PBST for three times. Dilute with goat anti-human FAB-HRP at ratio of 1:10000, incubate for 1 hour at 37 C, and wash with PBST for three times. Add TMB for 15 min coloration, stop the reaction with 0.5M H₂SO₄ and read out the absorbance at 450 nm.

T3 sequence (Q9NZQ7 19-238): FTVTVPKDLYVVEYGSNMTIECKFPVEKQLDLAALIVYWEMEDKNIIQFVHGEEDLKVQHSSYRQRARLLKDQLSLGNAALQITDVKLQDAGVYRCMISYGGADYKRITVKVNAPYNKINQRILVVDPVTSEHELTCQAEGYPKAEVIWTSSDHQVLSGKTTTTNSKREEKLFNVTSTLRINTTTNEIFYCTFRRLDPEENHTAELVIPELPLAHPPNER
T1 sequence (Q9NZQ7 19-290): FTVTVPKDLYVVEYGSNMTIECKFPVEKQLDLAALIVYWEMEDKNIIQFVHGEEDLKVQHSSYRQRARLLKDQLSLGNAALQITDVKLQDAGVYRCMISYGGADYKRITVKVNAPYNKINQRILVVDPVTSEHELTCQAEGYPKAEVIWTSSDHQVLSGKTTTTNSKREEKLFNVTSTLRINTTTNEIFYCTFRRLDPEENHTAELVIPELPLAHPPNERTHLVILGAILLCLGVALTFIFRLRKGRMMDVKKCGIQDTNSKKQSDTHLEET
T2 sequence (Q9NZQ7 19-238 limits assumed): as the sequence (Q9NZQ7 19-238) above
T4 sequence (Q9NZQ7 19-290): as the sequence (Q9NZQ7 19-290) above

B1: mouse anti-PD-L1 (antibody, V domains shown)
VH: KVQLQQSGAELVKPGASVKLSCKASGYTFTKYIIHWIKQRSGQGLEWIGWFYPGSGNIRYNEKIKGKATLTADKSSSTVYMELSGLTSEDSAVYFCARHGELGGGYFFDYWGQGTTLTVSS
VL: QIVLSQSPTILSASPGEKVTMTCRASSSVSNIHWYQQKTGSSPKPWIYATSNLASGAPVRFSGSGSGTSYSLTISRVEAEDAATYYCQQWSSNPLTFGPGTKLELKR
notes: also called mouse PD-L1 antibody; mouse anti-PD-L1 monoclonal antibody
For the molecule B1, the IC50 in [1] is 0.638 µg/mL; with hPD-L1-Fc [2], 0.86 nM. Also, the EC50 was determined as 0.0303 µg/mL in assay [3] and 1.67 ng/mL with hPD-L1-Fc [4].

B2: humanized antibody anti-PD-L1-1 (antibody, V domains shown)
VH: EVQLVQSGAEVKKPGASVKVSCKASGYTFTKYIIHWVRQAPGQGLEWMGWFYPGSGNIRYNEKIKGRVTMTRDTSTSTVYMELSSLRSEDTAVYYCARHGELGGGYFFDYWGQGTTVTVSS
VL: DIQLTQSPSFLSASVGDRVTITCRASSSVSNIHWYQQKPGKAPKPWIYATSNLASGVPSRFSGSGSGTEFTLTISSLQPEDFATYYCQQWSSNPLTFGQGTKLEIKR
notes: Expressed in CHO-KSM4 cells; also called humanized PD-L1 antibody
Regarding B2, the “EC50 (read off the curve)” value in assay [5], in [6], in assay [9] and in [10] was around 40 ng/mL throughout. In addition, the EC50 was found to be 0.0195 µg/mL in assay [7] and 0.0935 µg/mL in [11]. Also, the IC50 in assay [8] is 0.0432 µg/mL. The binding result with B7-1 is on record as “no binding (tested: 0.5 µg/mL antibody)”.

Broadly, the IC50 is the concentration that gives 50% inhibition. In general, EC50 refers to the midpoint of the concentration-response curve. One may read the EC50 (read off the curve) as the concentration at which the effect is half-maximal.

The values above are taken from patent publication US20190077867A1 (REYOUNG SUZHOU BIOLOGY SCIENCE AND TECHNOLOGY, published 2019).
